# Test: soluble on expression in E. coli; label from the status in PepcDB or PDB records
row,Sequence,soluble on expression in E. coli
1,MGSSHHHHHHGKTIFVIVPTNEEQVAFLEALAKQDELNFDWQNPPTEPGQPVVILIPSDMVEWFLEMLKAKGIPFTVYVEEGGSENLYFQGGGGGGLQLKSHQRLAEKPRRDAFVPRAYTVEELAQFDGKKKPQVFVGVKGIIYNVSLEWYGPEGPYSAFAGCDSSRQLGKVIVGRDEINADWTTLAPEHLKTLHEWEERFHSKYPAVGWITDPNKNFVKRAASLSP,not soluble
2,MSLEKPKYKRIVLKLSGEALAGEQGNGINPTVIQSIAKQVKEIAELEVEVAVVVGGGNLWRGKTGSDLGMDRATADYMGMLATVMNSLALQDSLETLGIQSRVQTSIEMRQVAEPYIRRKAIRHLEKKRVVIFAAGTGNPYFSTDTTAALRAAEIEADVILMAKNNVDGVYNADPRKDESAVKYESLSYLDVLKDGLEVMDSTASSLCMDNDIPLIVFSIMEEGNIKRAVIGESIGTIVRGKEGHHHHHH,soluble
3,MSLHPVSISLSSYGADLVRSRGQASFLPLLAMAGAQRVELREELFAGPPDTEALTAAIQLQGLECVFSSPLELWREDGQLNPELEPTLRRAEACGAGWLKVSLGLLPEQPDLAALGRRLARHGLQLLVENDQTPQGGRIEVLERFFRLAERQQLDLAMTFDIGNWRWQEQAADEAALRLGRYVGYVHCKAVIRNRDGKLVAVPPSAADLQYWQRLLQHFPEGVARAIEYPLQGDDLLSLSRRHIAALARLGQPQEERQHG,soluble
4,MAHHHHHHMEVFNFGKYNGKTFEEVFEKHKSYVTWVKSLESPSGSLLDFKNYVLQKEGKKNSSNMANNNHYNNEKNSNNNYSNNMYENNVRSPNIYNEQYTNNNKMKENYDRNANMNNNEICTNNNRINENNVKSPHYYNNEKNINNYSHECNRSKIAYKHNYSENRNSYNNFEKSSVDTNYTNEEKKKFHNMNSSEYRNYEEKVMSDINNAYNQPEEKKEFDIIVAFEIFSDDSFKIVQKDNNNKKFVSFRNFISKDLFKIISELNPTLKKINNYTCITFEAEKYEYVLNNLKEKCTILGGVHTIPNFLLKCFKNYTKFSEPQRISEITANILTNTMCSYTKQHYDKLDHLLGEKLSVELRNFQREGVFFGLKKNGRVLIGDEMGLGKTLQALALMAFYKDDWPFIVVCPSSIRFQWKDQALRWLSHLIREEHICVVKNGKTDIPSNTKMIIISYELITKNDKYQDKYKSIICDESHYLKNSLSKRTKVITPIIKNAKRCVLLSGTPALNKPSELYEQISSIMPNFFNYHEFCDRYCFKDKNLYTKKIEYVGCKHTEELHLFLTNTIMIRRLKKDVLKELPDKLRSKIPVEIPQKELSEILNYYKKLESKKNINFHDIDNIHLSNWSNSKSEDGDDENLSISHLFKITGYAKVKAIKEYISYLIDADIKFLLFCHHKLVMDEVETFLKEQKCSYIRVDGLTPMEKREIYIKNFQNDDNVKIALLSITACGMGLNLTAANTVVFGELFWVPGQIIQAEDRAHRIGTAHDVVNIHYLIAQNTIDEIVWKIINRKWNTLTTALNGIEDSLNVKEVNKFDKFMVDLTNDTNKSYPTSLVTTPKVRRKSSEHGTFHNSSPKKKNRDIRDFFTANKCNESVEKSWNNNINKRSYHDSPMNDSPNTTLKFLSKKYKTEIN,not soluble
5,MTECLQTKKSNCKNCYKCIRHCPVKSLKFTDGQAHIVRDECVLCGECYVVCPQNAKQIRSDVEKAKQLVLKYDVYASIAPSFVAWFHNKSIHDMEQALIKLGFKGADETAKGAYIVKKQYEKMIEEKKSKIIISSCCHTVNTLIQRHYTGAIQYLADVVSPMLAHAQMLKKEHKGAKVVFIGPCISKKDEAEKYKGYVELVLTFDELDEWLKSENITIESNRGSSKEGRTRSFPVSGGIISSMDKDLGYHYMVVDGMENCINALENIERGEIDNCFIEMSACRGSCINGPPARRKSNNIVGAILAVNKNTGAKDFSVPMPEPEKLKKEFRFEGVHKIMPGGTAIEEILKKMGKTSIEHELNCGSCGYDTCRDKAVAVLNGKADLTMCLPYLKEKAESFSDAIIKNTPNGVIVLNEDLEIQQINNSAKRILNLSPSTDLLGSPVSRILDPIDYILALREGKNCYYKRKYFAEYKKYVDETIIYDKEYHVIIIIMRDVTEEEKIKALKNKQSEAAIEIADKVVEKQMRVVQEIALLLGETAAETKIALTKLKETMEDE,not soluble
6,MTDDKKIRAAIVGYGNIGRYALQALREAPDFEIAGIVRRNPAEVPFELQPFRVVSDIEQLESVDVALVCSPSREVERTALEILKKGICTADSFDIHDGILALRRSLGDAAGKSGAAAVIASGWDPGSDSVVRTLMQAIVPKGITYTNFGPGMSMGHTVAVKAIDGVKAALSMTIPLGTGVHRRMVYVELLPGHNLEEVSAAIKADEYFVHDETHVIQVDEVDALIDMGHGVRMVRKGVSGSTQNQRMSFDMEINNPALTGQVLVCAARAAMRQQPGAYTLQEIPVIDLLPGDREQWIGKLC,soluble
7,MESNNNEKKKVARQSSSFRLRSPSLNALRLQRIFDLFDKNGDGFITVEELSQALTRLGLNADLSDLKSTVESYIQPGNTGLNFDDFSSLHKTLDDSFFGGACGGGENEDDPSSAAENESDLAEAFKVFDENGDGFISARELQTVLKKLGLPEGGEMERVEKMIVSVDRNQDGRVDFFEFKNMMRTVVIPSS,soluble
8,MATVDPIRYPIGTFQAPQQFEAGEVQEWIAAIRGLPSDLRTAVSGLNDEQLNTPYREGGWTVAQVVHHLADASMNAFLRTKWGVTEDGPTVKPFAESEWAKTADACLLPIEPSLLLLDGLHARWAALLESMTEADFHRTVRPEGAAGEMPLYVLTALYAWHGKHHTAQVASLRKRKGW,soluble
9,MKIKRLSLWHVPLTSHTAYYMAEGKTCDTVETAVLCIETDTGLTGWGEVCPIPHYLPAYARGVGPALSELAPVILSADPIGPEALMAKADAYLPDHRYAKSALDIALWDLTGQAAGLPLHALLGGQRQADLPLYHSITCIEPDEMARIAIEAQAQGMTQFQAKLGASGDWQTDVERLIKVREAVGSGPILYGDWNCGSTSLDATRTGRAVAHLDIMLEQPCATIEDCARVHSATGLPMKLDELVHDTASLLKAHQLGLMDVAALKLSKFGGLSATRRARDLCLHLGAKMCVEDTWGSDITTAAVLHLGAATDPARVLNVCDLSGYVSPRLAQDAPTRAQGRIAPPQAAGLGIAVDKTALGQPELILD,soluble
10,MSLNTGGNLLCVQLTVRRGPVREAKKPTPRIRNDGRYKIMQIGDLHLSTGVGACREAVPDSYNGGKCEADPRTLDFVNRVLDDEKPDLVVLSGDQVNGDTAPDAPTAMFKIVSLLIERKIPYAAIFGNHDDEKTMSREAQMAIMESLPFSLSTAGPADIDGVGNYYVEVLARGKTDHSALTIYLMDTHAYTPDERNFPGYDWVKPNQIEWFKKTAAGLKKNHNEYTGRHMDIAFIHIPLTEYADPALPRVGEWKEGVTAPVYNSGFRDALVEQGIVMVSAGHDHCNDYCSLSLAGEGETKIPALWMCYAGGSGFGGYAGYGGYHRRVRLFEVDTNEARIKTWKRLESGDTASRIDLQIIVDGGKPQPIAPVSEGHHHHHH,not soluble
11,MDEEKDLAQRKKEAAERAKQLARERLAARQADEQARSAAETGSLKTPPNSNGSQTETTKGEATEPASANDLALAKKRAAEEARAKAAQLRRQGEAAASGAATGDDLEAAKRKAAEEARAKAAQLRRQREAAAPGAATGDDLEAAKRKAAEEARARAAELRRQREAAESGAEDDLELAKKKAVAAAKARAAALAKQKAAEASGDDDELAKQKAAAAAKAKAAAAAKARAAALAKQQGGAGDEGAKQKAAAAARAKAEETDGGTGRSAAPSPNDPLLEKYVRIIHEHLGSDVLEDAYINRLAKDVPTLVVKKEAYYKVAELLKGHEQLRFDYLSELHGTDFQTHMEVYVHLYSYPNRHPVALKVKIERDNPEVDSLVPLWPGANWPECEAYDLLGIRFRGHPNLIRIFLGEQWVGHPLRKDYEPYDAEV,not soluble
12,MDKSTKDFMDLKKIGGDDERERRFSDASDTSMDCHMESIGSRRRDSLIEQFRDFLNRSMDFSVKIDDPFEKEMY,not soluble
13,MSLSLRRIDHVSLRVRDVEEASRRWSAQFGLAVRERDGRRARLACDDEPYCLELLAAEAPGVEHVAYELRRSCTLEEAGRHFEGLGVPYEEHAGGLRVADPDGNRVLVLPYREPRERWVSHARAATDQIVGHPRRLGHVNFLTGRLSEGVEFYTRALGMRITDWLGEGGVWFHINADHHVMALVDKGYPHFHHLAFDVVDIGQMRVALDHLGRHGRWLGWGPVRHGIGGNIASYVRIVEEECFVELYCDMEQLEADHEVRRWPDNRFSSNTWGPLPPRSYFRFDEAAVASERESLEMLGHPLKEEVSSEGHHHHHH,soluble
14,MVQLDRFEILFNNPEQAYFAGQEISGKVIIENKEPKKVNEILLELKGRARTYWTKHSGKSRKHCSHSEPYFLEQFNPGYTHKFTVVKDGKEKERILPAGIHQVPFSYTLPKSLPSSFEGEFGHIRYTCKAICERPWDFDIVSRKAFTVVGIEDINSDPKLNEPATCVESNHAVTFCCRSAGSVTGEIRISKCGYTPGEKIDVSFKVINLSSKTRTTALRFVQQTTYKAKTFAGHEHIKNVVRVISKIDKGEVPGGSTTEWQEESITIPSLPPKLGKCKILSVTYSVELEVEQTLTVPCPIVIGSIPQLSQLLIHSKQSVQSAGNGSLPKSSIKDSPPKWDSESCVQVTITDESGQLVEELGNEMEALLSARKRVRMPSSILSELYPTMPSPYYKESFFGASDISEEKEQAQFGEASFAPKYPFYTD,not soluble
15,MGSDKIHHHHHHVIRRKKEADMQLPDAWDWESGERTIMASTAPQEGHLWQEELQASPDGERFAAVTALDETTFSLRINDQTQEATYDKIWLPRFSPDGRLTALVQEDGEWTMLVEEEAWPGHYGYLWSTMFGPSGDIAAPAQQDGEYGMVLNGTPWETLYENANNYCISPAGGKTAAVVQTRSMGQADVATFQEGIYSVAVNGEAWPVNFVNCWTPVFSADGRRVAVQVRRNLHDYTIAVDGTPWTINYQCVWEPCFHPSSGGVAAPVRQNGMWGVALDGQMLWKARNAQCWNLRYSPDGSHLWAVVAPEYGMFTVSLDDTPWTFRAPVVTDMVLSPSGDRAAALASDNNTLWQVVVDGKPWRGTYDMAWQPVFSPDGTRVAARVERNGKYVVLLDGAPAAEAFDTAFDPVFSPDGRKLLLRGVRNGKAVRIVKQLQ,not soluble
16,MRGPVKIVATVGPSSSSASILAQMLSLGVDVARINASHGGVEQWNSMLESLRRAEEAVGKRVGVAVDLEGPRVRTGNSEPVKLEKGDLVTLGFMEGDVPVDARQFFETIDEGDIVLLDDGKIILQVESVEGFRVKARVLEGGVLGPRKGVVVRGKEPDLPPLSAKDRRALEFFADKGVSHVYVSFARSAEHVEKVRTVVRRLGLRQARIFAKIEGPSGVSRIGEIAEASDGVIIARGDLGMHYSLEELPEIQELIVWEARKRYKTVVLATEFLSSMIEKPVPTRSEVVDIYQAVLQTADALMLTGETAIGKYPVKSVQWMAKISSRAYKKLATSPPERPRPTSTPYKLALGLVELAESLDSPLVVYSKTGRFAERLASFKPLKTFYVGVPSREVERVVRHLWGAEPIVVGDYPYEAGLAKTYEKLRRENIIHGDETVVEAAWSSERGIYIIRVRNLEF,soluble
17,MGHHHHHHSHMSPDQFLLTVSALQHARNSGEFAYPCRPQTEITDVWGPSISYPRKVLNFKGKSIQRAVDRLRLSNPPIDVKRTSIPLEIQKLQPNLKISLHSPRAQSTIPEPMIIRSRFSGSLKGGDQVTSSIERAVCSTGPLTSMQVIKPNRMLAPQVGTATLSLKKERPRIYTALDPFRVNAEFVLLTVKEEKEHQEAKMKEYQARESTGVVDPGKASKAAWIRKIKGLPIDNFTKQGKTAAPELGQNVFI,soluble
18,MGSDKIHHHHHHMKSYFVTMGFNETFLLRLLNETSAQKEDSLVIVVPSPIVSGTRAAIESLRAQISRLNYPPPRIYEIEITDFNLALSKILDIILTLPEPIISDLTMGMRMINTLILLGIIVSRKRFTVYVRDEGGGSRVISFNDNTIRALMRDYSREEMKLLNVLYETKGTGITELAKMLDKSEKTLINKIAELKKFGILTQKGKDRKVELNELGLNVIKLNKSVIESSKSSEELVKENKGKEVNIPY,not soluble
